Numbering of substitutions follows the chain as printed. Names and notes keep the numbering of the source.

T1: biotinylated V112E-PNT domain (ETV6 residues 43-135, V112E, with Avitag) (human, UniProt P41212 43-135, V112E, biotin on the Avitag (~50 to 95% biotinylated))
T1 construct: ETV6, human, residues 43-135 of V112E ETV6; also called biotinylated V112E-PNT domain ligand; V112E-PNT domain ligand; source: E. coli BL21 (λDE3) co-transformed with pET21a-BirA, purified (Ni-NTA, thrombin cleavage); not shown: His6, N-terminal, cleaved; Avitag, N-terminal, kept
T1 sequence (looked up): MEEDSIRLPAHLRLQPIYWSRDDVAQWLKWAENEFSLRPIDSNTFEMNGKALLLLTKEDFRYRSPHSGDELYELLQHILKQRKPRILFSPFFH

T2: biotinylated A93D-PNT domain (ETV6 residues 43-135, A93D, with Avitag) (human, UniProt P41212 43-135, A93D, biotin on the Avitag (~50 to 95% biotinylated))
T2 construct: ETV6, human, residues 43-135; made from the V112E construct by introducing A93D and E112V; also called biotinylated A93D-PNT domain ligand; A93D-PNT domain ligand; source: E. coli BL21 (λDE3) co-transformed with pET21a-BirA, purified (Ni-NTA, thrombin cleavage); not shown: His6, N-terminal, cleaved; Avitag, N-terminal, kept
T2 sequence (looked up): T1 sequence (looked up) with A51D, E70V

B1: A93D-PNT domain (ETV6 residues 40-125 with the A93D mutation) (domain or fragment, human, UniProt P41212 40-125, looked up)
chain: ALRMEEDSIRLPAHLRLQPIYWSRDDVAQWLKWAENEFSLRPIDSNTFEMNGKDLLLLTKEDFRYRSPHSGDVLYELLQHILKQRK
notes: ETV6 PNT domain fragment, human, residues 40-125; expressed as residues 1-125 and cut by thrombin at the internal site V37-P38-R39/A40; 15N- or 13C/15N-labelled or unlabelled in NMR; also called A93D-PNT domain analyte; source: E. coli BL21 (λDE3), purified (Ni-NTA, thrombin cleavage, Superdex S75; size exclusion omitted for SPR); not shown: His6, N-terminal, cleaved
B2: F77A-A93D-PNT domain (domain or fragment, human, UniProt P41212 40-125, looked up)
chain: B1 chain with F38A
notes: ETV6 PNT domain, human; source: E. coli BL21 (λDE3), purified (Ni-NTA, thrombin cleavage); not shown: His6, N-terminal, cleaved
B3: D111A-A93D-PNT domain (domain or fragment, human, UniProt P41212 40-125, looked up)
chain: B1 chain with D72A
notes: as for B2
B4: Y114A-A93D-PNT domain (domain or fragment, human, UniProt P41212 40-125, looked up)
chain: B1 chain with Y75A
notes: as for B2
B5: E100A-A93D-PNT domain (domain or fragment, human, UniProt P41212 40-125, looked up)
chain: B1 chain with E61A
notes: as for B2
B6: K99A-A93D-PNT domain (domain or fragment, human, UniProt P41212 40-125, looked up)
chain: B1 chain with K60A
notes: as for B2
B7: L116A-A93D-PNT domain (domain or fragment, human, UniProt P41212 40-125, looked up)
chain: B1 chain with L77A
notes: ETV6 PNT domain, human; gene purchased commercially (Biomatik); source: E. coli BL21 (λDE3), purified (Ni-NTA, thrombin cleavage); not shown: His6, N-terminal, cleaved
B8: S47A-A93D-PNT domain (domain or fragment, human, UniProt P41212 40-125, looked up)
chain: B1 chain with S8A
notes: as for B2
B9: P107A-A93D-PNT domain (domain or fragment, human, UniProt P41212 40-125, looked up)
chain: B1 chain with P68A
notes: as for B2
B10: I48A-A93D-PNT domain (domain or fragment, human, UniProt P41212 40-125, looked up)
chain: B1 chain with I9A
notes: as for B2
B11: V112A-A93D-PNT domain (domain or fragment, human, UniProt P41212 40-125, looked up)
chain: B1 chain with V73A
notes: as for B2
B12: E115A-A93D-PNT domain (domain or fragment, human, UniProt P41212 40-125, looked up)
chain: B1 chain with E76A
notes: as for B2
B13: E76A-A93D-PNT domain (domain or fragment, human, UniProt P41212 40-125, looked up)
chain: B1 chain with E37A
notes: as for B2
B14: H108A-A93D-PNT domain (domain or fragment, human, UniProt P41212 40-125, looked up)
chain: B1 chain with H69A
notes: as for B2
B15: S78A-A93D-PNT domain (domain or fragment, human, UniProt P41212 40-125, looked up)
chain: B1 chain with S39A
notes: as for B2
B16: R80A-A93D-PNT domain (domain or fragment, human, UniProt P41212 40-125, looked up)
chain: B1 chain with R41A
notes: as for B2
B17: H119A-A93D-PNT domain (domain or fragment, human, UniProt P41212 40-125, looked up)
chain: B1 chain with H80A
notes: as for B2
B18: L79A-A93D-PNT domain (domain or fragment, human, UniProt P41212 40-125, looked up)
chain: B1 chain with L40A
notes: as for B2
B19: R103A-A93D-PNT domain (domain or fragment, human, UniProt P41212 40-125, looked up)
chain: B1 chain with R64A
notes: as for B2
B20: V112E-PNT domain (ETV6 residues 40-125 with the V112E mutation) (domain or fragment, human, UniProt P41212 40-125, looked up)
chain: B1 chain with D54A, V73E
notes: ETV6 PNT domain fragment, human, residues 40-125; expressed as residues 1-125 and cut by thrombin at the internal site V37-P38-R39/A40; 15N- or 13C/15N-labelled or unlabelled in NMR; also called V112E-PNT domain analyte; source: E. coli BL21 (λDE3), purified (Ni-NTA, thrombin cleavage, Superdex S75; size exclusion omitted for SPR); not shown: His6, N-terminal, cleaved
B21: N90A-V112E-PNT domain (domain or fragment, human, UniProt P41212 40-125, looked up)
chain: B1 chain with N51A, D54A, V73E
notes: as for B7
B22: L97A-V112E-PNT domain (domain or fragment, human, UniProt P41212 40-125, looked up)
chain: B1 chain with D54A, L58A, V73E
notes: as for B2
B23: K92A-V112E-PNT domain (domain or fragment, human, UniProt P41212 40-125, looked up)
chain: B1 chain with K53A, D54A, V73E
notes: as for B2
B24: E88A-V112E-PNT domain (domain or fragment, human, UniProt P41212 40-125, looked up)
chain: B1 chain with E49A, D54A, V73E
notes: as for B2
B25: N85A-V112E-PNT domain (domain or fragment, human, UniProt P41212 40-125, looked up)
chain: B1 chain with N46A, D54A, V73E
notes: as for B2
B26: I59A-V112E-PNT domain (domain or fragment, human, UniProt P41212 40-125, looked up)
chain: B1 chain with I20A, D54A, V73E
notes: as for B2
B27: M89A-V112E-PNT domain (domain or fragment, human, UniProt P41212 40-125, looked up)
chain: B1 chain with M50A, D54A, V73E
notes: as for B2
B28: D101A-V112E-PNT domain (domain or fragment, human, UniProt P41212 40-125, looked up)
chain: B1 chain with D54A, D62A, V73E
notes: as for B2
B29: R105A-V112E-PNT domain (domain or fragment, human, UniProt P41212 40-125, looked up)
chain: B1 chain with D54A, R66A, V73E
notes: as for B2
B30: T98A-V112E-PNT domain (domain or fragment, human, UniProt P41212 40-125, looked up)
chain: B1 chain with D54A, T59A, V73E
notes: as for B2
B31: E100A-V112E-PNT domain (domain or fragment, human, UniProt P41212 40-125, looked up)
chain: B1 chain with D54A, E61A, V73E
notes: as for B2
B32: R63A-V112E-PNT domain (domain or fragment, human, UniProt P41212 40-125, looked up)
chain: B1 chain with R24A, D54A, V73E
notes: as for B2
B33: L96A-V112E-PNT domain (domain or fragment, human, UniProt P41212 40-125, looked up)
chain: B1 chain with D54A, L57A, V73E
notes: as for B2

For the first experiment, the target named is T1, biotinylated V112E-PNT domain (ETV6 …). The experiment in a line: SPR; biotinylated V112E-PNT domain ligand captured on streptavidin Sensor Chip SA, PNT domain analytes flowed; Biacore X100, 25 °C, HBS-EP+ (10 mM HEPES, 150 mM NaCl, 3 mM EDTA, 0.05% v/v Tween-20, pH 7.4); analyte 0.2-60 nM, re-run at 20-6000 nM if KD > 60 nM. Conditions: both partners purified. The procedure, abridged:
(§1)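 Biotinylated ETV6 PNT domain (residues 43-135, Avitag-biotinylated) was diluted to 50 μg/ml in HBS-EP+ and captured on a streptavidin Sensor Chip SA in a Biacore X100 at 25 °C. PNT domain analytes were flowed at 0.2, 2, 20, 40 and 60 nM, or re-run at 20-6000 nM when binding was weaker. Chips were regenerated with 0.2% SDS for 30 s. Association and dissociation rate constants and equilibrium dissociation constant came from the Biacore kinetics/affinity software wizard.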
On to B1, for which binding was characterised by a dissociation constant (Kd) of 7.5 nM, the koff amounted to 0.0015 s⁻¹ and the association rate constant (kon) came out at 200000 M⁻¹ s⁻¹.
On the same counts, the results for B2 are 450 nM, 0.015 s⁻¹ and 34000 M⁻¹ s⁻¹.
For B3 the same measures were 420 nM, 0.0014 s⁻¹ and 3300 M⁻¹ s⁻¹.
On to B4, for which the dissociation constant Kd turned out to be 130 nM, the koff was 0.0045 s⁻¹ and the on-rate (kon) was determined as 35000 M⁻¹ s⁻¹.
B5 displayed a dissociation constant Kd of 5 nM, a dissociation rate constant (koff) of 0.0015 s⁻¹ and a kon of 310000 M⁻¹ s⁻¹.
For B6 the same measures were 930 nM, 0.0023 s⁻¹ and 2400 M⁻¹ s⁻¹.
For B7 the same measures were 3.3 nM, 0.00076 s⁻¹ and 230000 M⁻¹ s⁻¹.
In the case of B8, binding was characterised by a dissociation constant (Kd) of 6.9 nM, the koff came to 0.0014 s⁻¹ and the kon was 210000 M⁻¹ s⁻¹.
For B9 the same measures were 8.1 nM, 0.0021 s⁻¹ and 260000 M⁻¹ s⁻¹.
For B10 the same measures were 12 nM, 0.004 s⁻¹ and 340000 M⁻¹ s⁻¹.
On the same counts, the results for B11 are 550 nM, 0.011 s⁻¹ and 20000 M⁻¹ s⁻¹.
Consider B12, for which the dissociation constant Kd was found to be 11 nM, the koff came to 0.0025 s⁻¹ and the kon worked out at 230000 M⁻¹ s⁻¹.
For B13 the same measures were 9.9 nM, 0.0062 s⁻¹ and 620000 M⁻¹ s⁻¹.
For B14 the same measures were 5.4 nM, 0.0014 s⁻¹ and 260000 M⁻¹ s⁻¹.
B15: binding was put at a Kd of 3.3 nM, the koff was found to be 0.0093 s⁻¹ and the kon is 2.8e+06 M⁻¹ s⁻¹.
The molecule B16 gave a dissociation constant (Kd) of 32 nM, an off-rate constant (koff) of 0.0029 s⁻¹ and a kon of 91000 M⁻¹ s⁻¹.
On the same counts, the results for B17 are 13 nM, 0.0034 s⁻¹ and 270000 M⁻¹ s⁻¹.
On the same counts, the results for B18 are 200 nM, 0.0016 s⁻¹ and 8100 M⁻¹ s⁻¹.
For B19 the same measures were 21 nM, 0.0054 s⁻¹ and 250000 M⁻¹ s⁻¹.

In a further experiment the target is T2, biotinylated A93D-PNT domain (ETV6 …). In words: SPR; biotinylated A93D-PNT domain ligand captured on streptavidin Sensor Chip SA, PNT domain analytes flowed; Biacore X100, 25 °C, HBS-EP+ (10 mM HEPES, 150 mM NaCl, 3 mM EDTA, 0.05% v/v Tween-20, pH 7.4); analyte 0.2-60 nM, re-run at 20-6000 nM if KD > 60 nM. The following applies: both partners purified. In outline:
as §1
In the case of B20, the Kd is 5.1 nM, the koff is 0.0023 s⁻¹ and the on-rate (kon) came to 440000 M⁻¹ s⁻¹.
On the same counts, the results for B21 are 480 nM, 0.037 s⁻¹ and 78000 M⁻¹ s⁻¹.
On the same counts, the results for B22 are 700 nM, 0.068 s⁻¹ and 98000 M⁻¹ s⁻¹.
On the same counts, the results for B23 are 62 nM, 0.022 s⁻¹ and 350000 M⁻¹ s⁻¹.
For the molecule B24, binding was put at a Kd of 8.1 nM, the off-rate (koff) amounted to 0.004 s⁻¹ and the kon is 500000 M⁻¹ s⁻¹.
For B25 the same measures were 9.9 nM, 0.0034 s⁻¹ and 350000 M⁻¹ s⁻¹.
For B26 the same measures were 5.8 nM, 0.0025 s⁻¹ and 430000 M⁻¹ s⁻¹.
With B27, the Kd stood at 340 nM, the off-rate (koff) came out at 0.033 s⁻¹ and the association rate constant (kon) came to 97000 M⁻¹ s⁻¹.
On the same counts, the results for B28 are 400 nM, 0.0025 s⁻¹ and 6300 M⁻¹ s⁻¹.
In turn, B29 came in with a Kd of 2340 nM, a dissociation rate constant (koff) of 0.0054 s⁻¹ and a kon of 2300 M⁻¹ s⁻¹.
On the same counts, the results for B30 are 8.8 nM, 0.0054 s⁻¹ and 620000 M⁻¹ s⁻¹.
The molecule B31 registered a dissociation constant (Kd) of 7 nM, an off-rate constant (koff) of 0.0035 s⁻¹ and an on-rate (kon) of 500000 M⁻¹ s⁻¹.
Turning to B32, binding was characterised by a dissociation constant (Kd) of 15 nM, the dissociation rate constant (koff) is 0.0054 s⁻¹ and the on-rate constant (kon) is 360000 M⁻¹ s⁻¹.
For B33 the same measures were 1000 nM, 0.0095 s⁻¹ and 9500 M⁻¹ s⁻¹.

The Kd is the free concentration of one partner at which half of the binding sites on the other are occupied at equilibrium, for simple one-to-one binding. A lower Kd goes with a tighter complex. Usually koff stands for a measure of how fast the partners let go of each other. Higher therefore signals fast dissociation. For orientation: kon means a measure of how fast the partners come together. A high value points to fast association.

The record behind these values is PMC7949025, “Biophysical characterization of the ETV6 PNT domain polymerization interfaces” (The Journal of Biological Chemistry, 2021).
